In experiment [1] the target is biotinylated bovine serum albumin (bovine) (UniProt P02769). In words: ellipsometry after affinity microcontact printing; second use of the biotinylated BSA stamp; control.
Experiment [2] shares this target. In words: ellipsometry after affinity microcontact printing; third use of the biotinylated BSA stamp; control.
The target is the same in experiment [3]. As to the kind of experiment: ellipsometry after affinity microcontact printing from biotinylated BSA stamp (1 mg/ml, 5 h); control.

Sequence of UniProt P02769 (P02769 25-607 limits assumed): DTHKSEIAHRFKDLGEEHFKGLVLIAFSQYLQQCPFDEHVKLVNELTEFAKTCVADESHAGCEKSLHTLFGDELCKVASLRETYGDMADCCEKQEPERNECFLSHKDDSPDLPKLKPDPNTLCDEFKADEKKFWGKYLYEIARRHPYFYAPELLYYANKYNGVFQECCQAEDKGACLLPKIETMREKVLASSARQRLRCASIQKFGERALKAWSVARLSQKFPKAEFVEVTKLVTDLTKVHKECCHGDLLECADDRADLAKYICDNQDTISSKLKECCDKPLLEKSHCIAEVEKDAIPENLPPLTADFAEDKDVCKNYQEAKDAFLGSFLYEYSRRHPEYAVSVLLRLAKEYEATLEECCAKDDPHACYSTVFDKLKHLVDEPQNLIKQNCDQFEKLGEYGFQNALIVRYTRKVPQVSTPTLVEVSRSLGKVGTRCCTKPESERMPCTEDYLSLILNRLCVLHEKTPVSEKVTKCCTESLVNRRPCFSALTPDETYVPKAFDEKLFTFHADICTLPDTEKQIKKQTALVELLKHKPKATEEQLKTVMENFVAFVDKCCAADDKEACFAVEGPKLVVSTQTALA

For anti-goat IgG (antibody), the figures for the change in ellipsometric thickness in experiment [1], in experiment [2] and in experiment [3] were 1.5 nm, 1.2 nm and 2.3 nm, respectively.

(Values after US8133680.)
